± gives the half width of the 95% confidence interval.

14 sequences from the supplement of paper PMC12764529 can be followed below.

The nature of data set [1]: folding stability dG unfold from chymotrypsin proteolysis; higher = more stable. A digest of the protocol:
(§1)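 Designed mini-proteins (under 80 residues, no cysteine) in a PA-tagged cDNA display construct were digested with trypsin and chymotrypsin. Each protease was used at 11 concentrations (threefold dilutions) plus a no-protease condition, followed by sequencing. K50 was inferred by Bayesian fitting of sequencing counts, and unfolding free energy was derived against a sequence-predicted unfolded-state K50 and a shared folded-state K50, per protease or combined. Only designs with AlphaFold2 dimer inter-PAE above 15 were kept.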

A short description of data set [2]: folding stability dG unfold (combined trypsin and chymotrypsin); higher = more stable. A digest of the protocol:
as §1

A short description of data set [3]: folding stability dG unfold from trypsin proteolysis; higher = more stable. In short, it runs like this: as §1

Turning to “SAGGSAKTKTITLKIKIVDPKTNKVYEFEIKIEVELTLDKNGKLTAKIKKIEIKAPKNSPLLKKLLSAGGSA [r15_258_TrROS_Hall]”, the “folding stability dG unfold” value in data set [1] is 3.18 ± 0.041 kcal/mol; in data set [2], 2.68 ± 0.24 kcal/mol; in data set [3] it was 2.57 ± 0.063 kcal/mol.

Turning to “SAGGSAKVIAVPSLEEALKLAEEAAKEGKDIVVLFPDNRLLVVEVKPAPDDKPVLKLKVFEIPPELSAGGSA [r15_761_TrMRF]”, the “folding stability dG unfold” value came to 0.974 ± 0.072 kcal/mol in data set [1], 0.767 ± 0.15 kcal/mol in data set [2] and 0.47 ± 0.049 kcal/mol in data set [3].

Regarding “SAGGSAKWELSIWIPAPGMTPDKARELARDIAREFAQPGWKVKDIEVEPVNPDENVYRGTVTIEPPSAGGSA [r15_96_TrROS]”, the “folding stability dG unfold” value was 1.82 ± 0.11 kcal/mol in data set [1], 1.49 ± 0.13 kcal/mol in data set [2] and 0.951 ± 0.04 kcal/mol in data set [3].

Take “SAGGSALAEKAKELALEKGYDPVKVTYDPKTGTLTMTAKPPGGKEVKMTFTIDEDTITITTTPLTKSAGGSA [r15_561_JUSTAS]”: the “folding stability dG unfold” value in data set [1] was 2.95 ± 0.078 kcal/mol; in data set [2] it was 2.49 ± 0.16 kcal/mol; in data set [3], 0.996 ± 0.033 kcal/mol.

On to “SAGGSALDPDDLEKVTIEFMFYNPNGNLLYEMTLEIYPDDGVIKMEHKQRRPGEPQKVTMEFPFDPSAGGSA [r15_278_TrROS]”, for which the “folding stability dG unfold” value in data set [1] came out at 1.67 ± 0.18 kcal/mol; in data set [2] it was 1.73 ± 0.28 kcal/mol; in data set [3], 1.63 ± 0.29 kcal/mol.

Regarding “SAGGSALPALAERFPDAEIEPVGDDGTSVTYRFRFPGGDYLLVTVPFLPGTTEAVVDIEWVPRDALSAGGSA [r15_547_TrMRF]”, the “folding stability dG unfold” value came to 2.628 ± 0.012 kcal/mol in data set [1], 2.35 ± 0.051 kcal/mol in data set [2] and 1.68 ± 0.051 kcal/mol in data set [3].

Regarding “SAGGSALPDIEVEELVRRLLELLEEDQPFRIVVFPPGGRWLTLDELLNVPAEEIPDLVVLVFVPDLSAGGSA [r15_144_TrMRF]”, the “folding stability dG unfold” value was 3.49 ± 0.06 kcal/mol in data set [1], 3.3 ± 0.088 kcal/mol in data set [2] and 3.04 ± 0.091 kcal/mol in data set [3].

“SAGGSALTLNDKSLIPKPFPKKKAIVDVAVPLPPNLTLEEALEVAEAIANNLLKAGKIDEATVAIYSAGGSA [r15_450_TrMRF]”: the results for the “folding stability dG unfold” value in data set [1], in data set [2] and in data set [3] were 0.151 ± 0.15 kcal/mol, 0.108 ± 0.091 kcal/mol and -0.0583 ± 0.11 kcal/mol, respectively.

Consider “SAGGSALVIKKVEPNKGYLVFESKEDDKPIVRVKLETLVAALEEDRIPPALRRLLAENPDQVFNPVSAGGSA [r15_359_TrMRF]”, for which the “folding stability dG unfold” value in data set [1] stood at 1.75 ± 0.25 kcal/mol; in data set [2], 1.9 ± 0.21 kcal/mol; in data set [3], 2.22 ± 0.12 kcal/mol.

Take “SAGGSALYIPPGTEHTVLIKLKDDDRYYEAKVTRVYPTSIEVEVEDPLTGEKKRYTINATDIELGDSAGGSA [r15_381_TrMRF]”: the results for the “folding stability dG unfold” value in data set [1], in data set [2] and in data set [3] were 2.24 ± 0.07 kcal/mol, 2.18 ± 0.18 kcal/mol and 2.14 ± 0.12 kcal/mol, respectively.

Turning to “SAGGSAMAIFTVTPPDGVPVTERYSFTTPEEVEAAFAAAKAALPPGTALSVTLVPEEEVAAGRPLLSAGGSA [r15_469_JUSTAS]”, the results for the “folding stability dG unfold” value in data set [1], in data set [2] and in data set [3] were 1.59 ± 0.043 kcal/mol, 1.23 ± 0.034 kcal/mol and 0.386 ± 0.027 kcal/mol, respectively.

For the sequence “SAGGSAMEIEVEKNEDGTVTIRFRDKETGEEIEIEIEVEPGMTEEEVREKAEELAEELKKKGIEIESAGGSA [r15_1022_TrROS_Hall]”, the “folding stability dG unfold” value was 2.73 ± 0.19 kcal/mol in data set [1], 2.89 ± 0.23 kcal/mol in data set [2] and 2.82 ± 0.19 kcal/mol in data set [3].

“SAGGSAMETIELKLEDGSTLTIERDPENPNTLTITFEDGRKITVTADSAEEALKKALELAKEGKLPSAGGSA [r15_38_TrROS_Hall]”: the “folding stability dG unfold” value in data set [1] worked out at 4.58 ± 0.16 kcal/mol; in data set [2], 4.6 ± 0.17 kcal/mol; in data set [3] it was 4.36 ± 0.33 kcal/mol.

For the sequence “SAGGSAMIEEKLIEIPPIPVPYPDGSVQKVPVLVEETVELKPFIDPNTDKTSTAKTVTKRKVIFPSSAGGSA [r15_884_JUSTAS]”, the “folding stability dG unfold” value in data set [1] was 0.76 ± 0.084 kcal/mol; in data set [2] it was 0.379 ± 0.15 kcal/mol; in data set [3] it was -0.255 ± 0.21 kcal/mol.
